Blank lines part the entries; values can stand above or below the substance they belong to.
Tests used:
[1] = target: SNAP-tagged wild-type human PTH1R (human) (UniProt Q03431); assay: AlphaScreen or HTRF; crude membrane fractions (0.2–1 µg per well) of HEK293T cells with SNAP-Lumi4-Tb-labelled PTH1R, without mini-Gs; labeled M-PTH(1–14) tracer with unlabeled M-PTH(1–14); 4 h on ice
[2] = target: SNAP-tagged wild-type human PTH1R (human) (UniProt Q03431); assay: AlphaScreen or HTRF; binding of 40 nM M-PTH(1–14) to membrane fractions supplemented with increasing concentrations of mini-Gs; data relative to PTH1R without mini-Gs; EC50 of mini-Gs read through ligand occupancy, apparent

- fold increase in affinity, membrane fractions against whole cells [1]: 5 fold
Substance: Human [Ac5c^1, Aib^3, Q^10, Har^11, A^12, W^14]PTH(1–14) (peptide)

- fold increase of fractional binding with increasing mini-Gs [2]: < 2 fold
Substance: M-PTH(1–14) labeled at K^13 with HiLyte dye 647 (peptide)

Substance: Mini-Gs 393
- EC50 [2]: 1390 nM

— publication PMC10063554
